From US20140287471A1, “VARIANT CBH I POLYPEPTIDES WITH REDUCED PRODUCT INHIBITION” (BP CORPORATION NORTN AMERICA INC., priority 2011, published 2014)
Where a chain is given by its changes, count along the chain named.

B1: 268A+411— Leu (protein, UniProt P62694 18-513, looked up, variant R268A R411L)
Exoglucanase 1: QSACTLQSETHPPLTWQKCSSGGTCTQQTGSVVIDANWRWTHATNSSTNCYDGNTWSSTLCPDNETCAKNCCLDGAAYASTYGVTTSGNSLSIGFVTQSAQKNVGARLYLMASDTTYQEFTLLGNEFSFDVDVSQLPCGLNGALYFVSMDADGGVSKYPTNTAGAKYGTGYCDSQCPRDLKFINGQANVEGWEPSSNNANTGIGGHGSCCSEMDIWEANSISEALTPHPCTTVGQEICEGDGCGGTYSDNAYGGTCDPDGCDWNPYRLGNTSFYGPGSSFTLDTTKKLTVVTQFETSGAINRYYVQNGVTFQQPNAELGSYSGNELNDDYCTAEEAEFGGSSFSDKGGLTQFKKATSGGMVLVMSLWDDYYANMLWLDSTYPTNETSSTPGAVLGSCSTSSGVPAQVESQSPNAKVTFSNIKFGPIGSTGNPSGGNPPGGNRGTTTTRRPATTTGSSPGPTQSHYGQCGGIGYSGPTVCASGTTCQVLNPYYSQCL
B2: 411— Asp (protein, UniProt P62694 18-513, looked up, variant R411D)
Exoglucanase 1: B1 Exoglucanase 1 with A251R, L394D
B3: 268A+411— Cys (protein, UniProt P62694 18-513, looked up, variant R268A R411C)
Exoglucanase 1: B1 Exoglucanase 1 with L394C
B4: 268A+411— Gly (protein, UniProt P62694 18-513, looked up, variant R268A R411G)
Exoglucanase 1: B1 Exoglucanase 1 with L394G
B5: 411— Tyr (protein, UniProt P62694 18-513, looked up, variant R411Y)
Exoglucanase 1: B1 Exoglucanase 1 with A251R, L394Y
B6: 411— Cys (protein, UniProt P62694 18-513, looked up, variant R411C)
Exoglucanase 1: B1 Exoglucanase 1 with A251R, L394C
B7: 268A+411— Val (protein, UniProt P62694 18-513, looked up, variant R268A R411V)
Exoglucanase 1: B1 Exoglucanase 1 with L394V
B8: 411— Ser (protein, UniProt P62694 18-513, looked up, variant R411S)
Exoglucanase 1: B1 Exoglucanase 1 with A251R, L394S
B9: 268A+411— Trp (protein, UniProt P62694 18-513, looked up, variant R268A R411W)
Exoglucanase 1: B1 Exoglucanase 1 with L394W
B10: 268A+411— Glu (protein, UniProt P62694 18-513, looked up, variant R268A R411E)
Exoglucanase 1: B1 Exoglucanase 1 with L394E
B11: 411— Glu (protein, UniProt P62694 18-513, looked up, variant R411E)
Exoglucanase 1: B1 Exoglucanase 1 with A251R, L394E
B12: 268A+411— Met (protein, UniProt P62694 18-513, looked up, variant R268A R411M)
Exoglucanase 1: B1 Exoglucanase 1 with L394M
B13: 268— Ala (protein, UniProt P62694 18-513, looked up, variant R268A)
Exoglucanase 1: B1 Exoglucanase 1 with L394R
B14: 268A+411— Asp (protein, UniProt P62694 18-513, looked up, variant R268A R411D)
Exoglucanase 1: B1 Exoglucanase 1 with L394D
B15: 268Ser (protein, UniProt P62694 18-513, looked up, variant R268S)
Exoglucanase 1: B1 Exoglucanase 1 with A251S, L394R
B16: 268Glu (protein, UniProt P62694 18-513, looked up, variant R268E)
Exoglucanase 1: B1 Exoglucanase 1 with A251E, L394R
B17: 411Arg (protein, UniProt P62694 18-513, looked up)
Exoglucanase 1: B1 Exoglucanase 1 with A251R, L394R
B18: 411Ser (protein, UniProt P62694 18-513, looked up, variant R411S)
Exoglucanase 1: B1 Exoglucanase 1 with A251R, L394S
B19: 411His (protein, UniProt P62694 18-513, looked up, variant R411H)
Exoglucanase 1: B1 Exoglucanase 1 with A251R, L394H
B20: 411Thr (protein, UniProt P62694 18-513, looked up, variant R411T)
Exoglucanase 1: B1 Exoglucanase 1 with A251R, L394T
B21: 268A+411Gln (protein, UniProt P62694 18-513, looked up, variant R268A R411Q)
Exoglucanase 1: B1 Exoglucanase 1 with L394Q
B22: 268A+411Asp (protein, UniProt P62694 18-513, looked up, variant R268A R411D)
Exoglucanase 1: B1 Exoglucanase 1 with L394D
B23: 268A+411Glu (protein, UniProt P62694 18-513, looked up, variant R268A R411E)
Exoglucanase 1: B1 Exoglucanase 1 with L394E

Assay: 4-MUL cellobiose tolerance/inhibition assay, dose-response IC50 (Example 2)
Format: biochemical
Details: 1 mM cellobiose; primary screening; n=1
Method: (§1) CBH I activity on was measured using the 4-MUL assay using gluconolactone to inhibit any BG activity. The fluorogenic 4-MUL substrate (SIGMA) was prepared at 100 mM concentration in DMSO. Assays were run in black 96-well-flat-bottomed plates (Costar) and 4-MU fluorescence was read on a BioTek H4 plate reader (ex/em 365/450 nm). Assay plates were filled with buffer (final concentrations of 100 mM MES, pH 6, 25 mM gluconolactone, with or without cellobiose; cellobiose concentrations are listed with appropriate data sets), to which enzyme mixture was added (10-30 μl, 5 μg/mL final) and then assays were initiated by addition of 4-MUL (0.5 mM final concentration in 100 μl total volume). Enzyme mixtures were either CBH I variants from harvested supernatants or standards. Standards included: a negative control, consisting of harvested supernatant from the CBH I knock-out strain; a positive control, consisting of wild-type CBH I from harvested supernatants; and, a commercial CBH I standard (E-CBHI from Megazymes). Activity standards were run by serial dilution of commercial CBH I from 40 to 0.02 μg/mL and 4-MU (SIGMA, prepared at 20 mM in DMSO) (in dilution increments of 2-fold; all dilutions were made using harvested supernatant from the knock-out control). Kinetic rates were monitored over the first 15 mins following 4-MUL addition; initial rates were calculated based on data in the linear range. After 1 hr, a final endpoint read was taken, both before and after reaction quenching (100 μL of 200 mM Sodium Carbonate, pH 10.0). Activity was calculated for kinetic and endpoint reads; background resulting from the CBH I knock-out supernatant remained negligible. 4MU standard curves and HPLC quantification values were used to calculate specific activity.
Tolerance/inhibition values represent activity ratios and/or percent activity remaining/percent activity decreased in the presence versus the absence of cellobiose. Tolerant variants show less inhibition in the presence of cellobiose as compared to wild type, where an activity ratio of 1 (with vs. without a given concentration of cellobiose) is equivalent to 0% inhibition by cellobiose, or 100% tolerance. The effect of cellobiose on CBH I variant performance was monitored by dose-response in the 4MUL assay. Dose-response curves were generated by assaying variant activity in the presence of 6-8 different cellobiose concentrations ranging up to 100 mM cellobiose. CBH I samples were diluted to 5 μg/mL final concentration or were used directly in the case of protein quantification levels below 5 μg/mL. Half maximal inhibitory concentration (IC50) values were determined by plotting 4MUL activity versus cellobiose concentration and fitting with a four parameter dose-response fitting algorithm, with zero activity (or 100% inhibition) constrained to background activity (as established by CBH I knockout values) and with automatic outlier elimination (on GraphPad Prism 5).
Harvested supernatants from active variant isolates were evaluated for cellobiose tolerance at 1 mM cellobiose in the 4-MUL activity assay. Table 8 lists the tolerance of variants at 1 mM. […] Additional cellobiose concentrations at 0.25, 5, 10, 50, and 100 mM were tested leading to full dose-response curves for which half maximal inhibitory concentration (IC50) values were generated (Table 8). The IC50 values support that the variant library has decreased product inhibition, or increased tolerance to cellobiose, when compared to the wild-type enzyme (WT IC50=0.03 mM; see first entry, Table 8).
In one example, the cellobiose tolerance of the library was explored in more detail by generating dose-response curves and determining half maximal inhibitory concentration (IC50) values, the point at which the enzyme is 50% inhibited.

Point of comparison: B8, “Tolerance at 1 mM CB (MUL Data)” value 60%. Against it:
- B1 — higher, 99%
- B2 — higher, 106%
- B3 — higher, 85%
- B4 — higher, 91%
- B5 — higher, 85%
- B6 — higher, 71%
- B7 — higher, 102%
- B9 — higher, 97%
- B10 — higher, 95%
- B11 — higher, 76%
- B12 — higher, 97%
- B13 — lower, 48%
- B14 — higher, 93%

Same assay, conditions: 268 single substitution; averaged IC50 from Tables 8-11; read-out: 268— Measured (merged IC50)

Point of comparison: B15, IC50 0.5 mM. Against it:
- B16 — within 1.5-fold, 0.63 mM

Same assay, conditions: 411 single substitution; averaged IC50 from Tables 8-11; read-out: 411— Measured (merged IC50)

Point of comparison: B19, IC50 2.93 mM. Against it:
- B17 — 59-fold lower, 0.05 mM
- B18 — 3.4-fold lower, 0.87 mM
- B20 — within 1.5-fold, 1.97 mM

Same assay, conditions: double mutant 268A+411X; averaged IC50 from Tables 8-11; read-out: 268A+411— Measured (merged IC50)

Point of comparison: B23, IC50 14.4 mM. Against it:
- B21 — within 1.5-fold, 13.7 mM
- B22 — within 1.5-fold, 11.5 mM

Same assay, conditions: double mutant 268A+411X; expected IC50 (additive values of single mutations); read-out: 268A+411— Expected IC50

Point of comparison: B22, IC50 2.28 mM. Against it:
- B21 — within 1.5-fold, 3.09 mM
- B23 — 1.7-fold higher, 3.81 mM

Same assay, conditions: double mutant 268A+411X; measured versus expected additive IC50

Point of comparison: B23, “synergy of double mutant (measured vs expected additive IC50)” value 3.8. Against it:
- B21 — higher, 4.5
- B22 — higher, 5.0

Same assay, conditions: primary screening; 10 μL enzyme; cellobiose range 0.0001-100 mM; n=1; read-out: IC50 (MUL Data)

Point of comparison: B7, IC50 15.1 mM. Against it:
- B1 — 1.7-fold higher, 25.1 mM
- B2 — 7.3-fold lower, 2.08 mM
- B3 — 2-fold lower, 7.66 mM
- B4 — within 1.5-fold, 12.1 mM
- B5 — 2.8-fold lower, 5.4 mM
- B6 — 9.4-fold lower, 1.6 mM
- B8 — 14-fold lower, 1.05 mM
- B9 — 1.9-fold higher, 28.4 mM
- B10 — within 1.5-fold, 16.9 mM
- B11 — 5.1-fold lower, 2.95 mM
- B12 — within 1.5-fold, 11.5 mM
- B13 — 17-fold lower, 0.87 mM
- B14 — within 1.5-fold, 10.2 mM

Assay: 4-MUL assay, specific activity (Example 2)
Format: biochemical
Details: 268 single substitution
Method: as §1
The specific activity (SA) of the variant library was evaluated in a secondary 4-MUL assay. […] On average, a mutation at position 268 increases the specific activity by 2.5 fold over that of wild type. A mutation at 268 in combination with 411 is around 1.5-1.6 fold higher than wild-type, on average.

Point of comparison: B15, “268— Measured Specific Activity (SA)” value 1.85 μmol 4 MU/min/mg CBH I. Against it:
- B16 — lower, 1.84 μmol 4 MU/min/mg CBH I

Point of comparison: B16, “268— Δ SA* (change in specific activity; ratio of variant: WT)” value 2.4. Against it:
- B15 — the same, 2.4

Same assay, conditions: 411 single substitution

Point of comparison: B17, “411— Measured Specific Activity (SA)” value 0.83 μmol 4 MU/min/mg CBH I. Against it:
- B18 — lower, 0.60 μmol 4 MU/min/mg CBH I
- B19 — lower, 0.80 μmol 4 MU/min/mg CBH I
- B20 — lower, 0.48 μmol 4 MU/min/mg CBH I

Point of comparison: B17, “411— Δ SA* (change in specific activity; ratio of variant: WT)” value 1.1. Against it:
- B18 — lower, 0.8
- B19 — lower, 1.0
- B20 — lower, 0.6

Same assay, conditions: double mutant 268A+411X

Point of comparison: B22, “268A+411— Measured Specific Activity (SA)” value 2.21 μmol 4 MU/min/mg CBH I. Against it:
- B21 — lower, 1.22 μmol 4 MU/min/mg CBH I

Point of comparison: B23, “268A+411— Δ SA* (change in specific activity; ratio of variant: WT)” value 0.6. Against it:
- B21 — higher, 1.6
- B22 — higher, 2.9

Same assay, conditions: primary screening; 10 μL enzyme; n=1

Point of comparison: B10, “SA (μmol 4 MU/min/mg) (MUL Data)” value 0.74 μmol 4 MU/min/mg. Against it:
- B1 — higher, 1.72 μmol 4 MU/min/mg
- B2 — lower, 0.23 μmol 4 MU/min/mg
- B3 — higher, 1.58 μmol 4 MU/min/mg
- B4 — higher, 0.88 μmol 4 MU/min/mg
- B5 — lower, 0.67 μmol 4 MU/min/mg
- B6 — lower, 0.52 μmol 4 MU/min/mg
- B7 — higher, 1.39 μmol 4 MU/min/mg
- B8 — lower, 0.51 μmol 4 MU/min/mg
- B9 — higher, 3.07 μmol 4 MU/min/mg
- B11 — lower, 0.38 μmol 4 MU/min/mg
- B12 — higher, 0.87 μmol 4 MU/min/mg
- B13 — higher, 1.42 μmol 4 MU/min/mg
- B14 — higher, 2.12 μmol 4 MU/min/mg
